Here are results for 1 molecule from patent US7052704B2, “Methods and compositions for lipidization of hydrophilic molecules” (University of Southern California, priority 1995, dated 2006).

Data set [1] concerns Caco-2 monolayers. Description: Transport of single- and multiple-conjugates across Caco-2 monolayers in transwells. Format: cell-based, Human. The procedure: Confluent cell monolayers, 2 to 3 weeks old, and having a TEER value of approximately 500 Ωcm^2, were first incubated with Dulbecco's MEM containing 1% of FBS for 30 min at 37° C. Subsequently, the incubation medium was removed, and the ^125I-BBI (10 μg/ml) conjugates in 1.5 ml of the medium was added to the apical chamber of the transwells. To the basal chamber, 2.5 ml of the medium was added and the transwells were incubated at 37° C. At predetermined times, the entire basal chamber medium (2.5 ml) from each transwell was removed and counted for radioactivity using a gamma counter. In each experiment, typically seven samples were taken at 1, 2, 3, 4, 5, 6 and 24 hr post-incubation. After the 24 hr samples were taken, the cell monolayers were rinsed three times with ice-cold PBS, cut out of the inserts, and counted for accumulated radioactivity using a gamma counter.
The integrity of the ^125I-BBI conjugates transported across the monolayers was studied using Sephadex G50 gel-filtration chromatography. Briefly, after the basal medium was sampled at 24 hr, 1.0 ml of the medium was centrifuged at 2000 rpm and then eluted from a G50 column (10 ml) using PBS; 1 ml fractions were collected and the fraction-associated radioactivity was determined using a gamma counter. Intact conjugates eluted at column void volume and fragments smaller than 1 kDa were eluted at or above the column volume.
In the transwell experiments, the conjugates were incubated with the apical side of the cells for 1 hr at 37° C. The transwells were then rinsed three times with ice-cold PBS and then reincubated with serum free medium. The release of the conjugates into the apical and the basal medium was chased for 24 hr by counting the entire basal or the apical medium at different times. The total counts obtained at the end of the chase period (transwells+media counts were added, and the release of the conjugates (% of total) at different times was calculated. To ensure that the counts obtained in the transwells at 24 hr were due to the presence of the conjugates in the cells and not non-specific binding to the plastic, the transwells were exposed to trypsin for 10 min, rinsed three times with ice-cold pbs, and subsequently counted for accumulated radioactivity.
BBI was modified with 2 or 4 palmitic acids, and the transport was determined in transwells. The cumulative transport of BBI, BBI modified with 4 palmitic acids, and BBI modified with 2 palmitic acids in Caco-2 monolayers were determined as BBI (ng/monolayer) ± SEM, n=3. The order of the transport extent was BBIssPal(4)>BBI>BBIssPal(2). The results of the internalization of the conjugates into the same cells were determined as the ng of BBI internalized per monolayer. […] The basal media obtained at 24 hr from the transwells was analyzed using a G50 column. […] However, a small, but significant, amount of the basal media of BBIssPal(2) consisted of intact conjugate. This quantity consisted of between about 10 and about 20% of the total radioactivity present in the basal medium.
In general terms: Caco-2 monolayers are a common model of the intestinal barrier.

Data set [2] has as its system C3H 10T1/2 cells. The data set is described as follows: Plating efficiency in conjunction with transformation assay. To be noted: 200 cells/dish, 10 days; conjugates 1.0 μg/ml after MCA 1 μg/ml 24 hr. It counts as cell-based. Here is the method:
The plating efficiency (PE) of the cells was also studied in conjunction with each of the transformation assays. To determine the PE of the cells in the different treatment groups, cells (200 cells/dish) were seeded into three 60-mm petri dishes per experiment group and treated in the identical manner as the transformation assay cells. The cells in these assays were terminated at 10 days, fixed with 100% methanol, and stained with giemsa; the colonies of 50 cells or more visible under a microscope were then counted. The plating efficiency is defined as the (number of colonies/number of cells seeded)*100.

Data set [3] in a line: iv-biodistribution of 125I-BBI conjugates.
The subject of data set [4] is Human colon carcinoma cells (Caco-2). The data set is described as follows: Uptake of 125I-BBI conjugates into Caco-2 cell monolayers.

B1: BBI: hydrophilic protein which has low uptake into cells and is not orally bioavailable; used for chemoprevention (protein, UniProt P01055 40-110, looked up)
Bowman-Birk type proteinase …: DDESSKPCCDQCACTKSNPPQCRCSDMRLNSCHSACKSCICALSYPAQCFCVDITDFCYEPCKPSEDDKEN
Regarding B1, the “order of the transport extent (cumulative transport)” value in data set [1] (Caco-2 transwells, n=3) was “BBIssPal(4)>BBI>BBIssPal(2)”. Moreover, the “transcytosis across the monolayers (G50 analysis of basal media)” value in data set [1] (basal media at 24 hr) is recorded as “neither BBI nor BBIssPal(4) was transcytosed”. Further, the “Plating Efficiency (%)” value in data set [2] is given as 24 ± 2.0%. Also, the “kidney accumulation” value in data set [3] (3 mg/kg) is “rapidly accumulated in the kidneys”. Besides, in data set [3] (3 mg/kg, 0.5, 3 and 24 hr), the “blood level and removal from circulation” value is given as “rapidly excreted from the body without attaining high blood levels”. For the same molecule, the “Uptake (ng BBI/mg of cell protein)/hr” value in data set [4] (1% FBS, 10 μg/ml, 60 min, 37° C., ± SEM, three monolayers) is recorded as 2.2 ± 0.17 (ng BBI/mg of cell protein)/hr; in data set [4] (10% FBS, 10 μg/ml, 60 min, 37° C., ± SEM, three monolayers), 1.3 ± 0.02 (ng BBI/mg of cell protein)/hr; in data set [4] (BSA/FA: fatty acid-loaded BSA 0.1% (3-molar excess of palmitic acid)) it was 3.9 ± 0.00 (ng BBI/mg of cell protein)/hr; in data set [4] (BSA: fatty acid-free BSA 0.1%), 4.8 ± 0.00 (ng BBI/mg of cell protein)/hr; in data set [4] (DTT-treated (50 mM, 5 min 60° C. and 25 min 37° C.), serum-free medium), 5.2 ± 0.00 (ng BBI/mg of cell protein)/hr; in data set [4] (Untreated, serum-free medium) it was 4.8 ± 0.00 (ng BBI/mg of cell protein)/hr. For the same molecule, the “Uptake (ng BBI/mg of cell protein)/hr” value in data set [4] (serum free (BSA-free) Dulbecco medium) is recorded as 4.8 ± 0.00 (ng BBI/mg of cell protein)/hr; in data set [4] (serum free, 10 μg/ml, 60 min, 37° C., ± SEM, three monolayers), 3.9 ± 0.19 (ng BBI/mg of cell protein)/hr. In addition, in data set [4] (defatted-BSA 0.1% in medium), the “effect of defatted-BSA on uptake” value is “not affected”. Moreover, in data set [4] (fatty acid-loaded BSA 0.1%), the “effect of fatty acid-loaded BSA on uptake” value is given as “again not affected”. Further, the “effect of exposure to DTT on uptake” value in data set [4] (serum-free medium) is recorded as “did not cause a reduction in the uptake”.
